According to patent US20200400675A1 (ECS PROGASTRIN, published 2020):

T1: human progastrin (human, UniProt P01350 22-101)
T1 construct: also called hPG; PG
T1 sequence: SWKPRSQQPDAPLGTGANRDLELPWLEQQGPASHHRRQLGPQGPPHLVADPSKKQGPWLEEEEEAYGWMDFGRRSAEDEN

B1: mAb13 (hybridoma 2C6C3C7) (antibody, V domains shown)
VH: EVQLVESGGGLVQPGGSLKLSCAASGFIFSSYGMSWVRQSPDRRLELVASINTFGDRTYYPDSVKGRFTISRDNAKNTLYLQMTSLKSEDTAIYYCARGTGTYWGQGTTLTVSS
VL: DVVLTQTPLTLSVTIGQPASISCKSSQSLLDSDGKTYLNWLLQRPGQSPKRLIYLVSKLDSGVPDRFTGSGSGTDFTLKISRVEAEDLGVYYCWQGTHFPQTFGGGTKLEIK
notes: Murine monoclonal antibody
B2: mAb3 (hybridoma 6B5B11C10) (antibody, V domains shown)
VH: EVQLQQSGTVLARPGASVKMSCKASGYIFTSYWVHWVKQRPGQGLEWIGGFYPGNSDSRYNQKFKGKATLTAVTSASTAYMDLSSLTNEDSAVYFCTRRDSPQYWGQGTTLTVSS
VL: DVLMTQTPLSLPVSLGDQASISCRSSQSIVHSNGNTYLEWYLQKPGQSPKLLIYKVSNRFSGVPDRFSGSGSGTDFTLKISRLEAEDLGVYYCFQGSHVPFTFGGGTKLEIK
notes: Murine monoclonal antibody
B3: mAb16 (hybridoma 1E9D9B6) (antibody, V domains shown)
VH: QVQLQQSGAELVKPGASVKLSCKASGYTFTSYYMYWVKQRPGQGLEWIGEINPSNGGTNFNEKFKSKATLTVDKSSSTAYMQLSSLTSEDSAVYYCTRGGYYPFDYWGQGTTLTVSS
VL: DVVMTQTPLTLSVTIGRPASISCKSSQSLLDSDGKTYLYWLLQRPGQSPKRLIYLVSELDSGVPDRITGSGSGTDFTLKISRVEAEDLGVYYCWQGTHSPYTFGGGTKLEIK
notes: Murine monoclonal antibody
B4: mAb4 (hybridoma 20D2C3G2) (antibody, V domains shown)
VH: QVQLQQSGAELMKPGASVKISCKATGYTFSSSWIEWLKQRPGHGLEWIGEFLPGSGSTDYNEKFKGKATFTADTSSDTAYMLLSSLTSEDSAVYYCATDGNYDWFAYWGQGTLVTVSA
VL: DLVMTQTPLSLPVSLGDQASISCRSSQSLVHSSGVTYLHWYLQKPGQSPKLLIYKVSNRFSGVPDRFSGSGSGTDFTLKISRVEAEDLGVYFCSQSTHVPPTFGSGTKLEIK
notes: Murine monoclonal antibody
B5: mAb19 (hybridoma 1B3B4F11) (antibody, V domains shown)
VH: DVQLQESGPGLVKPSQSLSLTCTVTGYSITSDYAWNWIRQFPGNKLEWMGYISFSGYTSYNPSLKSRISVTRDTSRNQFFLQLTSVTTEDTATYYCAREVNYGDSYHFDYWGQGTIVTVSS
VL: QLALTQSSSASFSLGASAKLTCTLSSQHRTYTIEWYQQQSLKPPKYVMEVKKDGSHSTGHGIPDRFSGSSSGADRYLSISNIQPEDEAIYICGVGDAIKGQSVFVFGGGTKVTVL
notes: Murine monoclonal antibody

The binders below were run against T1, human progastrin (assay: epitope mapping (no details given)).
B1: binds. B2: binds. B3: binds. B4: binds. B5: binds.
